The DeepSol protein solubility set

test: soluble on expression in E. coli; label from the status in PepcDB or PDB records

| Sequence | soluble on expression in E. coli |
| --- | --- |
| MRFSPIIGPSSYVSSLCHSILRGELFSTCSVGCIYCYARWYRGAHGKEKPLWESLKLIKMLGGIIREGLAITPIRVSTLSDPFQGEGKITLKFLKLALKEKVPVIINTKLIPREKHIKTIERLAEEGLVVVQVSLPTLEETKVLEPFSPSPGQRLELIERLSRAGVPTIVRVQPFVPGWIRDIHTFIEEIASAGARMIILEFLRIEKELLPLFSKLFPGEDIYKREWESYLPGTSTEEAPLLHPPLDYRLSIAREFSIKAEKEGLAFSTCKEGLFEFHTPLNVDCCGMAFFDVEYISRRPTLWDLYLEIVENGKAKGEDLWERCRREELLCRENLTPYPRWFRRGFIAHEKRLESVLRKPHIVERITPSIKYENGYFIKRKERSNSGYNSFF | not soluble |
| MGSDKIHHHHHHMFVEACGRLVLIRKIYGLVKVFMVKKTIRYMRISLMLTNDAIFTTRLQKGGALLDDMRQLVCQWTEAVAKPESQAGEILHKATRSRVADTYRRAFLPRFLKGSPQDAWKLARALEEAHPSIEIIRPFYYWITARAEPILYAYVTEELVEKAKTSDRAVRTEETASWINNTLRSCGRVWSPTVQLKVARGILAALRDFAILEGAVNKRLVHGHLPIETFCLIAFLLNLMGIGARELVEHSDWKLFLLAGPEVERLFFEAHQHGWLHYQAAGRVHRIEFPTNDFKDYIRVIFGTES | not soluble |
| MSVLYIQIRRNQITVRDLESKREVSGDAAFSNQRLLIANFFVAEKVLQDLVLQLHPRSTWHSFLPAKRMDIVVSALEMNEGGLSQVEERILHEVVAGATLMKYRQFHIHAQSAVLSDSAVMAMLKQK | soluble |
| MALLQISEPGLTAAPHQRRLAAGIDLGTTNSLVATVRSGKAQTLADEQLADEQLIADEQLIAGEQLIAGQQLIAGQQLINEKQRDLLPSVVHYHPQGIDVGWKARNLAALDPVNTISSVKRMMGRSLADIVQRYPNLPYQFHASENGLPMIQTARGLVNPVQVSAEILKTLAQRAQAALAGELDGVVITVPAYFDDAQRQGTKDAARLAGLHVLRLLNEPTAAAIAYGLDSGQEGVIAVYDLGGGTFDISILRLSRGVFEVLATGGDSALGGDDFDHLLADWLREQAGVATRDDHGIQRQLLDTAIAAKIALSEAETAVVSVAGWQGEVTREQLESLIAPQVKRTLMACRRALKDAGVTADEILEVVMVGGSTRVPLVREQVGQFFGRTPLTSIDPDKVVAIGAAIQADILVGNKPDSDMLLLDVIPLSLGLETMGGLVEKVIPRNTTIPAARAQEFTTFKDGQSAMMIHVLQGERELVKDCRSLARFTLRGLPPLPAGGAHIRVTFQVDADGLLSVTAMEKSTGVEASIQVKPSYGLSDDEIANMIKDSMANAQSDITARKLAEQRVDAARVLESLQGALAEDAALLSEQESAAIAQAVALLQQQMQGSDPQAIEAAIKALDAQTQDFAARRMDASIRRALAGHSVDEV | soluble |
| MRLWVLTLVQAHFAILAVADTTVAVEETTKAANETTTPDGPHADCFLCAPTVQCGETVEGDYSSGEVNVLLMKPMEDNDYFIVKGEVFPNAMKIFIDIYKDLSVGKAQEGGNNQPRLLTFEHYFDTNLTFSRSNLHGEGVPDSFREATLPDAIKQKKPWTLMFKMKDGLSAFETGDETGWFNNDIPWNGTATTQSFNIRGGWKTTSIQ | not soluble |
| MRVAIVGTGIAGNAAAWALSQRYPVTVYERELRAGGHSHTVTVDYDGTTIPVDIGFIVYNQLNYPDLTAMFAHLGVETVESCMSFSVSADAGRFEWKGGGSNWLETADGLFAQRRNLLSPSYLQMLRHILVFNEKSVEDFKTGALAGLTLGDYFESRKFAPRLLTDYLAPMGAAIWSAPASQILDFPAENFVAFFNNHRLLHYERPIWRTVKGGSARYVEKLTSAFKDDMRLGAAVTSIERSPKGVIVRDSLGGLGVFDHVVIGAHSDQALAMLSDASDIERDILGSIGYAPNMVYLHRDPRLMPKRKRAWASWNFLRWQREGSPVNDVAVTYWMNRLQGIDADKPLFVSLNPPFEPAPELTFGRYACDHPQYTAKAFAAQRRVGELQGHRNTWFCGAWTGYGFHEDGLRSGLAVAEHLGAPVPWRGPPSEFREAAELEHHHHHH | soluble |
| MGSDKIHHHHHHMNDENIQSSNYQPFPSFDDWKQIEVSLLDVIESSRHFSDLKDSTDRSALDAALERAKRAAAVDTNAIEGIFQTDRGFTHTVATQVGAWEQQMAMKGKHVKPAFDDTLEGFEYVLDAVTGRTPISQQWIRNLHAVILRSQESHEVFTAVGVQNQALQKGEYKTQPNSPQRSDGSVHAYAPVEDTPAEMARFISELESKEFLAAEKVIQAAYAHYAFVCIHPFADGNGRVARALASVFLYKDPGVPLVIYQDQRRDYIHALEAADKNNPLLLIRFFAERVTDTINSIIVDLTTPIAGKSGSAKLSDALRPTRVLPELHDAAHRLQESLFTEIRSRLDEEGKRNGLEFLLQRIFIGSPFNLPEGYNAFPDSYCLTLAFNSNSPKQIFHPLSIVIAARDGKRASSDLVAATSIGYNFHAYGREVEPVVTESFRERVKIYADGIVDHFLTELAKKFQQN | not soluble |
| MALPKTGYTKTTADNFVIDSATVFTDFKYDKEKEEFTGIPMGATSGGVEIKTELSYRKVEVDGAYIMDVVGLNVLESATATMKANLIELTAENLRRSLNATMTDATTDEAPAGYKIIKPKRYLEEGDYIPNMAVVGIHNGTKQPIIVALDNGLVKSGLEIKTEDGKEVVIEQEITANASYEQLINDEFPFRIYYPSTSKNPIELTESL | not soluble |
| MSLEPYAAKAHEGYLRNLMLRYSERHEQLMVNIVTSWYDKALMQALKERLEAAMPEQQMTLLNNVTTRKNTVATGEQEYVISGDGYVTERLGDLDFRISANSFFQTNTRQAETLYDQIIAVGGITPEDTVYDLYCGTGTITLYLARHCKQAIGIEVVESAVKDAEMNAELNGLSNTVFFQADLKNFHAMQEALEPYAKPRIIVTDPPRAGMHPKALDTMLKLQPERIVYVSCNPDNLARDGKEIAARGYRMTSAQPVDMFPQTNHIETVACFERAEGHHHHHH | not soluble |
| MRALAKLAPEEGLTLVDRPVPEPGPGEILVRVEAASICGTDLHIWKWDAWARGRIRPPLVTGHEFSGVVEAVGPGVRRPQVGDHVSLESHIVCHACPACRTGNYHVCLNTQILGVDRDGGFAEYVVVPAENAWVNPKDLPFEVAAILEPFGNAVHTVYAGSGVSGKSVLITGAGPIGLMAAMVVRASGAGPILVSDPNPYRLAFARPYADRLVNPLEEDLLEVVRRVTGSGVEVLLEFSGNEAAIHQGLMALIPGGEARILGIPSDPIRFDLAGELVMRGITAFGIAGRRLWQTWMQGTALVYSGRVDLSPLLTHRLPLSRYREAFGLLASGQAVKVILDPKA | soluble |
| VVFVTVGTTSFDALVKAVVSQNVKDELQKRGFTHLLIQMGRGIFFPTKCDGADGSLVVDYFTFSSSIADYIRSASLVISHAGSGSIFETLKLGKPLIVVVNEDLMDNHQCELAEALEERKHLYYTRPHSLHQTLTKMELGSLVQYTPGDGTPVARIIDRFLGFPDD | not soluble |
| MGSDKIHHHHHHMTDTTIPNPLAPVKGANTTFWMYNSEGDPFASPLSDNNWLRLANVKDLQPGELTADAEDNNYLDDENADWKSTTQGQKSAGDTSVTLAWKPGEDVQKKLIQLFTTGQKRGFRIKYPNGTVDVFRGWVSSLGKTVQSKDEIARTVKITSVGRPYMAEEDAPEVVSVTGLTVEPTNATVKVGATTAVTFTVKPDNVTDKSLRIATSDPTTATVTQAENIATVKGVKAGTVKIIGMTTDGNFTAIADITVQA | not soluble |
| MELRVGNKYRLGRKIGSGSFGDIYLGANIASGEEVAIKLECVKTKHPQLHIESKFYKMMQGGVGIPSIKWCGAEGDYNVMVMELLGPSLEDLFNFCSRKFSLKTVLLLADQMISRIEYIHSKNFIHRDVKPDNFLMGLGKKGNLVYIIDFGLAKKYRDARTHQHIPYRENKNLTGTARYASINTHLGIEQSRRDDLESLGYVLMYFNLGSLPWQGLKAATKRQKYERISEKKMSTPIEVLCKGYPSEFSTYLNFCRSLRFDDKPDYSYLRQLFRNLFHRQGFSYDYVFDWNMLKFGAARNPEDVDRERREHEREERMGQLRGSATRALPPGPPTGATANRLRSAAEPVASTPASRIQPAGNTSPRAISRVDRERKVSMRLHRGAPANVSSSDLTGRQEVSRIPASQTSVPFDHLGK | not soluble |
| MATGNRNPENFTSLSPIVKAPITDTLSVPLSQQGRICGFFESQFYRCMEAYGAKMGRKYCDLEHRDFQECVTGDKQKKRADAIREQRCKLFLDGKIAKPYVDNHPEPGQFKTDHFQWNRIN | not soluble |
